Data taken from PMC9896810, “Crk proteins activate the Rap1 guanine nucleotide exchange factor C3G by segregated adaptor-dependent and -independent mechanisms” (Cell Communication and Signaling : CCS, 2023).
Where a chain is given by its changes, count along the chain named.

B1: CrkL (full-length) (natural protein, human, UniProt P46109 1-303, looked up)
chain: MSSARFDSSDRSAWYMGPVSRQEAQTRLQGQRHGMFLVRDSSTCPGDYVLSVSENSRVSHYIINSLPNRRFKIGDQEFDHLPALLEFYKIHYLDTTTLIEPAPRYPSPPMGSVSAPNLPTAEDNLEYVRTLYDFPGNDAEDLPFKKGEILVIIEKPEEQWWSARNKDGRVGMIPVPYVEKLVRSSPHGKHGNRNSNSYGIPEPAHAYAQPQTTTPLPAVSGSPGAAITPLPSTQNGPVFAKAIQKRVPCAYDKTALALEVGDIVKVTRMNINGQWEGEVNGRKGLFPFTHVKIFDPQNPDENE
notes: human CrkL, residues 1-303, in pETEV15b; also called Crk-like protein; source: E. coli BL21 (DE3), purified (IMAC, TEV digestion, SEC); not shown: His, N-terminal, cleaved
B2: CrkL-SH3N (domain or fragment, human, UniProt P46109 125-182, looked up)
chain: LEYVRTLYDFPGNDAEDLPFKKGEILVIIEKPEEQWWSARNKDGRVGMIPVPYVEKLV
notes: human CrkL, SH3N domain, residues 125-182, in pETEV15b; source: E. coli BL21 (DE3), purified (IMAC, TEV digestion, SEC); not shown: His, N-terminal, cleaved

How the values were obtained:
C3G-PAAA = target: T1, C3G-PAAA (human, UniProt Q13905-1 4-1077, P453A | P454A | L456A | P457A | K459A | P540A | P541A | L543A | P544A | K546A | …); experiment: ITC; single-PRM mutant of C3G in the cell titrated with CrkL or CrkL-SH3N, 25 °C, 300 mM NaCl, pH 7.5; SEDPHAT, 1:1 heteroassociation model; N is the competent fraction of C3G; conditions: both partners purified
T1 construct: human C3G isoform a, residues 4-1077; only P1 kept, P2, P3 and P4 mutated to Ala; source: E. coli BL21 (DE3), purified (IMAC, TEV digestion, reversed IMAC, SEC); not shown: His, N-terminal, cleaved; Halo, N-terminal, cleaved
T1 sequence (looked up): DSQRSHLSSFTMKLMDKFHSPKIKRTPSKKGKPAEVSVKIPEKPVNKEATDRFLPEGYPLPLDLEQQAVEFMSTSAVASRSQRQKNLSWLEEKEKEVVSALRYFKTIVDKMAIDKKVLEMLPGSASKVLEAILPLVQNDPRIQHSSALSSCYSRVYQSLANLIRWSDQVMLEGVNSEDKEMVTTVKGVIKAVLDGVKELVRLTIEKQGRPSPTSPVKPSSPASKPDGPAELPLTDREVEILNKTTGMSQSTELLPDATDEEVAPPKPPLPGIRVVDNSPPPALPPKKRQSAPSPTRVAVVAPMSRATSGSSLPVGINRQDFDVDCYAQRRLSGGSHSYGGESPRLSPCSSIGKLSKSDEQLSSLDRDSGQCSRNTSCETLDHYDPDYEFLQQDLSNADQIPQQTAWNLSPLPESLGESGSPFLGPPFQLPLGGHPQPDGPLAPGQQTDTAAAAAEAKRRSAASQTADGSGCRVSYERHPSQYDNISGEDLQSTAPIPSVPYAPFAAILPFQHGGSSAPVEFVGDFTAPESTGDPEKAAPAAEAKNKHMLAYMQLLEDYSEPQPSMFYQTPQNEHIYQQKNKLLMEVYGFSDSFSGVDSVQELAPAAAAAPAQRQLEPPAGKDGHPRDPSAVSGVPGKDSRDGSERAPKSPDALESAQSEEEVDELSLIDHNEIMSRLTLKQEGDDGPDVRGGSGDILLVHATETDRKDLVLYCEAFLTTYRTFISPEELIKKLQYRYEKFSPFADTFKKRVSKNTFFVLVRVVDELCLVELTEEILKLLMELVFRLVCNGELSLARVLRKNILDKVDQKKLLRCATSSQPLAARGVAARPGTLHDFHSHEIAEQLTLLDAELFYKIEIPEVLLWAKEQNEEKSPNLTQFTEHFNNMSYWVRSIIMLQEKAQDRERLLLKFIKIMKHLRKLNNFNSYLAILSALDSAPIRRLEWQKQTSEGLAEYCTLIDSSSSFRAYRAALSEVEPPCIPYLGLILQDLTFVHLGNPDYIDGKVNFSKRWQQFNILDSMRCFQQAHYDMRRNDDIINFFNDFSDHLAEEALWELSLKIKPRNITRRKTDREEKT

[1] = target: T2, Src-phosphorylated C3G-AAAP (human, UniProt Q13905-1 4-1077, P283A | P284A | L286 | P287 | P289A | P453A | P454A | L456A | P457A | K459A | …, phosphotyrosines from phosphorylation in vitro with Src (sites not given)); experiment: as above; conditions: both partners purified
T2 construct: human C3G isoform a, residues 4-1077; only P4 kept, P1, P2 and P3 mutated to Ala; also called pC3G-AAAP; source: E. coli BL21 (DE3), purified; phosphorylated in vitro with the recombinant kinase domain of Src, then SEC; not shown: His, N-terminal, cleaved; Halo, N-terminal, cleaved
T2 sequence (looked up): T1 sequence (looked up) with P280A, P281A, L283A, P284A, K286A, A605P, A606P, A608L, A609P, A611K

Binder	Kd (C3G-PAAA) [nM]	stoichiometry N (C3G-PAAA)	Kd [1] [nM]	stoichiometry N [1]
B1	900	0.86		
B2			2400	0.74
